Reference: paper PMC6453127 (Biochimica et biophysica acta. General subjects, 2017)

Molecular target: the molecule itself
Experiment: cross-linking

B1: His6-tagged Hsp90β CTD (530–724) (domain or fragment)
chain: not shown
binding result: binds
